From a protein production outcome set (Wang et al. 2014)

Test: label from the status in PepcDB records

| Sequence | protein production |
| --- | --- |
| MLNYRQLHYFWVVAKTGSIVRACEQLNLTAQTVSGQISLLEAALGVDLFQRVGRRLEMTEAGRLALPYAEQMFQLGDELESLLRSQPDEQQLLLRIGVADVVPKSIVYRLIAPTMELAEPIRITCREDKLERLLADLAIQRLDLVISDSPMPPHLDIKGYSQKLGECGVTFFATREVAERVGSDFPQCLHGAPLLIPGQETVVRGRLMRWFAEQKIQPRIIGEFDDSALMKAFGKSGSGIFVAPSVIVDEVQGQYGVQVIGQTDAVTESFYAITVERKVRHPGVVAIAESARNQLFTDAG | failed |
| MPQNQLVITIIDESGSKQLKFSKNLKRNLIISVVIFLLIVGLGVGFLKFLIAKMDTMTAERNAVLRDFRDLYQKNYTLTKEIKNKREELFIVGQKIRTIESLIEVKRGANGGVHLYDEVDLDNLNLAQKHLALMLIPNGMPIKTYSAIKPTKERNHPIKKIKGVESGIDFIAPLNTPVYASADGIVDFVKTNSNVGYGNLVRIEHAFGFSSIYTHLDHVNVQPKSFIQKGQLIGYSGKSGNSGGEKLHYEVRFLGKILDAQKFLAWDLDHFQSALEENKFIEWKNLFWVLEDIVQLQEHVDKDALISQ | failed |
| MLAIRRGASMPPLNRSDDLMPGIDEIPERRDEVSLGDLLLEVLRFYQQFGRLLIPLAVLCGVLAGVVVATRPLYAVTALLETPQMSLEQWRKLQPMLADRQLVAASLASMTELPPEQRERLQRAFVLKKYWDTRVTYRSAVERDDIRQQVNIDAKSVGALGLEVSLYARDDAAANQQLDAIAQHVRQVVLWGGLRDYLDSLRQQTLEQRPQLQIDQIQQRYAIEQNERQAADMQQLLERYPELRRNEVNTVVSVGDGGGRYLSPLAQIVALQSTIAGTRTTLRQVERELEQLDGKQRFLARVDQRAPGLHLGRALADWVQSCRRAVFGSGTPSGSALSQVASEIDLALSQQRWRAQLVRYRAIPALSPAPVPSRRPALVALAVFLGVLLVASLGLAMYVIARRNGDRHASWSAHADPLFAWLPQRMRGLLLGPTDARPLGSG | failed |
| MLSRLRHRLLAVAAAAGLTGALLSFGAAPPADAAVPATIPLKITNNSARGDAVHIYNLGTSLTTGQQGWADENGTFHAWPAGGNPPTPAPDASIPGPAAGQTKTIRIPKLSGRIYFSYGQKLDFRLTTGGLVQPAVQNPSDPNRNILFNWSEYTLNDGGLWLNSTQVDMFSAPYTVGVQRADGGVTSAGQLKAGGYRGVFDALRAQPGWGGLIQTRPDGTVLRALAPLYGVETGALPASVMDDYINRVWQKYTTTTLTVTPFGDRPDTKYFGRVSGNVMNFTNTSGAVVTSFQKPDASSVFGCHRLLDAPNDQVRGPISRTLCAGFNRSTLLSNPNQPDPSAANFYRDPVTNHYARIIHERMADGKAYAFAFDDVGNHESLVHDGNPAEARLTLAPLDLEHHHHHH | not failed |
| MAPAPAAEFWEARYRDTGRVWSGRPNELLVQEAGGLAPGTALDLGCGEGADAVWLASRGWRVTGVDISATALERAAGHADGAGVGDRVLWERHELGPSFPEGSFDLVSAHYLQSPVALDQQAVLRAAARAVAPGGTLLVVMHAGWPSWQTEPPFDAAFPTLDGVLAELALPEGEWSVETRRTARRPLEHHHHHH | failed |
| MNINVKDIIADSHLAFLNQENETALRLARQAISLAPDNPDAYRCAGNACMSLDRYDEAIEYYRTAVKYDPDNGNRYYDLGFALASAERFSDALKNLAKAEELGCTPENLVQLYNLLGILCFDIGRYDDALVNLNKAEKLIGIDVDILKRKAVIYGIKNDIKNGLMTANQIKLVTPSEYTGYQIAFKLLVQAKRLDEAEKELERARKYASPTMDFYFDYMTLELEKYKTDNDKEHFKTALGMIEKALKTVKPTVKEVVESYINAAEIYLQLEDADRAIECLNAAQNPIWAYNNGFDVVVRNYEPVTLTEYDIEDMIEADRKKIEEQFGDYGFEEMVESIEPDEEGNRDYLTVIEDEVKSDAKEDSEVYKLDESEKVEYSSDNIDQINRLYVGAYTVKKDFEKVIEYSRKLQASENTYSVYLGKYTEANAMKELGLPDFAAKYEEIIKFFRNAMIKDPTDLTAVTFRVQCYIDIGQYDEAEQLCSLLTKEVRNSFMEKIKKAKSGGEQH | failed |
| MIVTLLAVGAAAAVGAVARYMLDQYVQYRSPGLFPLGTWLINVTGSFVLGLLVGLGARHGLPEQFVPIAGVGFCGAYTTFSTFSYELVHLREKGQVRKSLLYGASSLTAGLLAAAAGLAVESF | failed |
| MRWNICVVGAGKIGQMIAALLKTSSNYSVTVADHDLAALAVLNRMGVATKQVDAKDEAGLAKALGGFDAVISAAPFFLTPIIAKAAKAAGAHYFDLTEDVAATNAVRALAEDSQTAFMPQCGLAPGFVGIAGAALAAEFDEIDSLHMRVGALPLYPTNALKYNLTWSTDG | failed |
| MENRIELYDSKARYGVISRGLHWAMALAFAWIYSTTSAHYLLADSALDKFLWPTHKQVGLLLMALLLVRVLWSLLNRHRRPPSLNLAATLGHGLLYAGMFAIPFLGLLRQYGSGRAFSAFGLPVMNGFDGPKIQWMTELGNNFHSLLGWTLLVLIVGHVAALILHCIKGQGHILRRMAGSARSA | failed |
| ITERKQIEEALQKSGQRLRMTLESTSTNWWERDLITDQADWSEQSDHLLGYTPDSYEKNQDTFYKLVHPDDREHVQAGVNLAIATGEPYQGEFRLVQADGNCIWILGTGHVEYNEAGQPVRMSGLNIN | failed |
| MKRWIAIILIALMPAAQAGKAAKVTLVVDDVPVVQVLQALAEQERQNLVVSPDVSGTLSLHLTDVPWKQALQTVVNSAGLVLRQEGNILHVHSQAWQKEHSARQDAERLRLQANLPLENRSISLQYVDTGELAKAGEKLLSAKGTIMVDKRTNRLLLRDNRAALAELEKWVSQMDLPVAQVELAAHIVTINEKSLRELGVKWTLADATQAGAVGDVTTLSSDLSVAAATSRVGFNIGRINGRLLDLELSALEQKQQLDIIASPRLLASHLQPASIKQGSEIPYQVSSGESGATSVEFKEAVLGMEVTPTVLQKGRIRLKLHISQNVPGQVLQQADGEVLAIDKQEIETQVEVKSGETLALGGIFSRKNKSGSDSVPLLGDIPWLGQLFRHDGKEDERRELVVFITPRLVATE | failed |
| AWAGLQTKHLKVGDIEWVYSESGNSSKPTIILIHGLAGSRDNWNRVAYNLTPYYHVIIPDLPAHGDTKIPNDFDLSIPNLTEKLRRFAEAGHFEKNVHIAGHSMGGAIALLYTAQYPLETKSLLLVDSAGVFKTANTPYLKDPNLLNNLVVKKTGDFDKLFKLATASPPFIPVELKTEQEKLMIAQSKNTQKMVDQLVAMSKIYTPDTFAIATKSIDVPTYIIWGDQDKIINVEAAQELKSLLKNAETPYILKGVGHMPILEADQLVSQQYLIFLNK | failed |
| MESYDIEGSNQNYVYINVNRWTSTEYPQNTFVYEVLRTPIGSSLESGPEIVKVGVRSTKVASKDITVTLDIDNCASIGEFSSFPDGVKVTLDKKELVIPAGSMLSSDSVTIEIEDGKWSEFVNTSYLLPLKVTSVSNAALSETHSSAYLAVSTSFTNCVPGATSVEGTLISDRSAWTATNNGVDVGTTLFDGNTRTYPSQDASSTVIVNLNGVYQNITGIRLQYYSRNYSLSSAAVYTSETGGEDYEYQGNVTFSRATPQYIRFYGAVSARYVKLELLPYSSGYGIVLSEFDMYQNELEHHHHHH | not failed |
| MAISQMKKLAMVFEKDYLDLVLKTLQQSQLVEVRDMKQLKHWQDAFNKGNVKLPQIVQYDLTHQKPLLDDEALQYLLQSQQELENGLASLSAFLPPIGKLTALRQKTPSLSFKQFEERHRQQAAQTALKMMSQKIERLEQLQSKIDQLTEYCQELEKWRSLTVLPQDLAQFHFLSARVGTIPSTANNHFYHQLKQHKGLFIEEVYHTEFEYGLVLFWQAQDTIHLQKYQFKPLLYKEQLLPSEQLRINKELLTNWLAEKDSLLKELRQSQKILAQLQVEIDYVLSQYQRQQTKKQLLGTRHLIALEGWIEADSVNQLKGLMTKTLGDMFYLDSYDVTPDDWEDVPIKLRNHRYIAPFELVTEMYALPKYQEKDPTPFLAPLYLTFFGMMVADLGYGLLLYAVTLAALVFFNLQKTSKRLVTFFNILAISVAIWGLIYGSFFGFDLPVALLSTKTDVITILVVSLLFGFVTLIFGLLLGAWQQVRMKAYATAYTSSLAWTFILLGLLLFILGKNVSGLAYLSVIGKWLALGNAFGILVVSLLKSKSLLGLGSGLYNLYGISSYLSDLVSFTRLMALGLSGASIGAAFNMIVGIFPPVTRFTVGIFIFILLHAINIFLSMLSGYVHGARLIFVEFFGKFYEGGGKAFNPLKLADNYVNVNEETDLEDN | failed |
